What is called EC50 is the concentration at which the effect is half-maximal.

15 molecules from US20260216362A1, “ANTI-BDCA2 ANTIBODY-DRUG CONJUGATE AND USE THEREOF” (DUALITY BIOLOGICS (SHANGHAI) CO., LTD., priority 2022, published 2026) can be followed below.

Residue numbers refer to the chain shown, from its start.

Assay [1] has as its target T1, human BDCA2 expressed on CHOK1 cells (human, UniProt Q8WTT0 1-213).
T1 construct: whole, on cells; also called CHOK1-hBDCA2; CHOK1-humanBDCA2
T1 sequence (looked up): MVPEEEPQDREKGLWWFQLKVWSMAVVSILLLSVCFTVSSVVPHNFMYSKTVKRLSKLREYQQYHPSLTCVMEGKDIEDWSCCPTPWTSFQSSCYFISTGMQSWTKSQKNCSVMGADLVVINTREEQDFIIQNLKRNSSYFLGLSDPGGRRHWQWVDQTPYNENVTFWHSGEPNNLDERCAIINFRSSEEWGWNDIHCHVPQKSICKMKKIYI
The assay is described as follows: FACS on CHOK1-hBDCA2 cells, MFI vs concentration; EC50 from the drawn table (fit of a flat control curve).

In assay [2] the target is cynomolgus monkey BDCA2 expressed on 293F cells (cynomolgus monkey). Briefly: FACS on 293F-cynoBDCA2 cells, MFI vs concentration; EC50 from the drawn table (fit of a flat control curve).
Assay [3] deals with T2, Human BDCA2 Fc recombinant protein (human, UniProt Q8WTT0 45-213).
T2 construct: also called HumanBDCA2 Fc protein; not shown: The N-terminal human IgG1 Fc fragment and the linker
T2 sequence: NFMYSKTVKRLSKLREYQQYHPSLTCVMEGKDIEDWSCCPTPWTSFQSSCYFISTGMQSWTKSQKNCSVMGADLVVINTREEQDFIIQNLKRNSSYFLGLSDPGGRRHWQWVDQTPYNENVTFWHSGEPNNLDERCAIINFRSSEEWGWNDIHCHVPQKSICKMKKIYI
Briefly: ELISA, coated humanBDCA2 Fc. (In general: In an ELISA, binding on a coated surface is turned into a signal by an enzyme label.)

Assay [4] concerns the target T1, human BDCA2 expressed on CHOK1 cells. The assay is described as follows: FACS on CHOK1-hBDCA2 cells. The procedure: (§1) The cells were collected and resuspended to 2×10\hat{ }6 cells/mL in an FACS buffer (PBS+2% FBS). The resuspended cells were added to a 3799 cell plate at 100 μL/well and centrifuged at 300 g, and the supernatant was discarded. […] The cells were resuspended and incubated at 4° C. for 1 h. The incubated cells were centrifuged at 300 g for 5 min and washed twice with the FACS buffer. 100 μL of Goat anti-Human IgG (H+L) Cross-Adsorbed Secondary Antibody, Alexa Fluor 488 (Sigma, A11013; 1:1000) secondary antibody was added. The cells were incubated at 4° C. for 1 h, washed twice with the FACS buffer, and resuspended in PBS. The fluorescence signals of the antibodies for binding to the cell surface were analyzed using an FACS (BD FACS Canto™ II) instrument, curves were fitted using GraphPad Prism6, and EC50 values of the antibodies or antibody-drug conjugates for binding to the BDCA2 antigen were calculated.

Assay [5] has as its target T3, cynomolgus monkey BDCA2 expressed on 293F cells (cynomolgus monkey, UniProt A0A2K5UWP4 1-212).
T3 construct: whole, on cells
T3 sequence: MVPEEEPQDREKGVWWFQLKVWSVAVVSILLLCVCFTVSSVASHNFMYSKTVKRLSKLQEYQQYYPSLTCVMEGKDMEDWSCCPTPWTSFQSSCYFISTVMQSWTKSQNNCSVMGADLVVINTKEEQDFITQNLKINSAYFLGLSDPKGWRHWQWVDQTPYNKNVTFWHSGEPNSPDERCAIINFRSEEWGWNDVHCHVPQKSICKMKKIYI
Briefly: FACS on 293F-cynoBDCA2 cells. How it is done: as §1

Regarding hIgG1 (antibody), the results for the EC50 in assay [1] and in assay [2] were 160 µM and 584 nM, respectively.

B1: mAb020 (antibody)
chain 1: DVQLQESGPGLVKPSQSLSLTCSVTGYSIASGYYWNWIRQFPGNKLEWMGYISFDGTYNYNPSLKDRFSITRDTSKNQFFLKLNSVTTEDTATYYCARGVDYPNAIDWWGQGTSVTVSS
chain 2: DIVLTQSPASLAVSLGQRATISCRASESVSMHVTHLIHWYQQKPGQPPKLLIYVASNLESGVPARFSGSGSETDFTLNIHPVEEEDAATYFCQQSFEDPWTFGGGTKLEIK
On to B1, for which the EC50 in assay [3] is less than 0.3 nM.

B2: mAb024 (antibody)
chain 1: EVQLVESGGDLVKPGGSLKLSCAASGFTFSSFGMSWVRQTPDKRLDWVATISSGDSYTYYPDSVKGRFSISRDNAKNTLYLQMSSLKSEDTAVYYCARQIYYDYAYYFDYWGQGTTLTVSS
chain 2: B1 chain 2 with M31F, H32R, V33S, T34S, I37M, Q41R, V54A, T89A, F96I, W100P
As to B2, the EC50 in assay [3] was less than 0.3 nM.

B3: mAb022 (antibody)
chain 1: B1 chain 1 with A30T, N104K, I106M
chain 2: B1 chain 2
On to B3, for which the EC50 in assay [3] was less than 0.3 nM.

B4: mAb019 (antibody)
chain 1: EVKLVESGGDLVQPGGSLKLSCAASGFTFSDYYMYWVRQTPEKRLEWVAYISYSGDSTYYPDTVKGRFTISRDNAKNTLFLQMSRLKSEDTAMYYCARHSPSFPYYFDYWGQGTALTVSS
chain 2: EIVLTQSPAITAASLGQKVTITCSASSSVSYMHWYQQKSGTSPKPWIYEISKLASGVPARFSGSGSGTSYSLTISSMEAEDAAIYYCQLWNYPLITFGGGTNLEIK
In the case of B4, the EC50 in assay [3] is less than 0.3 nM.

B5: mAb021 (antibody)
chain 1: DVQLQESGPGLVKPSQSLSLTCSVTGYSITSAYYWNWIRQFPGNKLECMGYITYDGNNYYSPSLKNRISITRDTSKNQFFLNLNSVTTEDTATYFCARGGDYDDGGFAFWGQGTLVTVSA
chain 2: DIQMTQSPASLSASVGETVTITCRASGNIHNYLAWYHQKQGKSPQLLVYNAKSLVDGVPSRFSGSGSGTQYSLRINSLQPEDFGSYYCQHFWIVPYTFGGGTKLEII
Take B5: the half-maximal effective concentration (EC50) in assay [3] was less than 0.3 nM.

B6: mAb027 (antibody)
chain 1: B5 chain 1 with I38V, K45Q, N57S, Y59N, S61N, N82K, F95Y, A97V, F109Y
chain 2: B5 chain 2 with H37Q, S53T, Q70E, R74K, S85I, Y87F, V94I, I107R
In the case of B6, the EC50 in assay [3] is less than 0.3 nM.

B7: mAb030 (antibody)
chain 1: B5 chain 1 with T53S, N57S, S61N, N82S, A97V, F109Y
chain 2: B5 chain 2 with H37Q, S53T, V55A, G68E, R74K, S85N, Y87F, V94I, I107K
In the case of B7, the EC50 in assay [3] is less than 0.3 nM.

B8: Hu033-03 (antibody, human IgG1, kappa, V domains shown)
VH: EVQLVESGGGLVKPGGSLRLSCAASGFTFSSYGMSWVRQAPGKGLEWVSTISSGDSYTYYPDSVKGRFTISRDNAKNSLYLQMNSLRAEDTAVYYCARQIYYDYAYYFDFWGQGTTVTVSS
VL: DIVLTQSPASLAVSPGQRATITCRASESVSFRTSHLMHWYQQKPGQPPKLLIYGASNLESGVPARFSGSGSETDFTLTINPVEAEDTANYFCQQSIEDPPTFGGGTKVEIKR
notes: Humanized IgG1; also called Hu033-03(BM3)
As for B8, the figures for the EC50 in assay [4] and in assay [5] were 1.23 nM and 1.91 nM, respectively.

B9: Hu033-03-ADC (antibody, human IgG1, kappa, V domains shown)
VH: B8 VH
VL: B8 VL
modifications: Compound 9 (glucocorticoid linker-payload) coupled to cysteine sulfhydryls after TCEP reduction, positions not given; average 4.01 per antibody by HIC
notes: also called Hu033-03 antibody-drug conjugate; BDCA2-ADC
For the molecule B9, the EC50 in assay [4] stood at 1.6 nM; in assay [5] it was 2.36 nM.

B10: mAb005 (antibody)
chain 1: QVQLKQSGPGLVQPSQSLSITCTVSGFSLTNYGVHWVRQSPGKGLEWLGVIWSGESTDYDAAFISRLSISKDNSKSQVFFKMNSLQADDSAIYYCARRRSHYYGYVMDYWGQGTSVTVSS
chain 2: DIVLTQSPASLAVSLGQRATISCKASQSIDYDGIGYLNWYQHKPGQPPKLLIYAASNLESGIPARFSGSGSGTDFTLNIHPVEEEDAATYYCQQSNEDPPTFGSGTKLEIK
Consider B10, for which, in assay [3], the EC50 is less than 0.3 nM.

B11: mAb016 (antibody)
chain 1: B10 chain 1 with N31S, K81R
chain 2: B10 chain 2 with I29V, I34V
For the molecule B11, in assay [3], the EC50 is less than 0.3 nM.

B12: mAb001 (antibody)
chain 1: QIQLVQSGPELKKPGETVKISCKASGYTFTDFSMHWVKQAPGKGLKWMGWINTETGEPTYADDFKGRFAFSLETSASTAFLQINNLKNDDTTTYFCSRGGDGHPYWYFAVWGAGTTVTVSS
chain 2: DIVLTQSPASLAVSLGQRATISCRASQSVSTSSYSYMHWYQQKPGQPPKLLIKYASILESGVPARFSGSGSGTDFTLNIHPVEEEDTATYYCQHSWEIPFTFGSGTKLEIK
Consider B12, for which, in assay [3], the EC50 is less than 0.3 nM.

B13: mAb002 (antibody)
chain 1: QIQLVQSGPELKKPGETVKISCRASGYSFTDYSMHWVKQAPGKGLKWVGWINTETGEPTYADDFKGRFALSLETSATSAYLQINNLKNEDTATYFCARGGDGFPYWYFNVWGAGTTVTVSS
chain 2: B12 chain 2 with A9T, A19T, T20N, Y34N, M37I, I57N, E59D, A88S
With B13, the EC50 in assay [3] was less than 0.3 nM.

B14: BIIB059 (antibody, human IgG1, kappa, V domains shown)
VH: DVQLVESGGGLVKPGGSLRLSCAASGFTFSTYTMSWVRQAPGKGLEWVATISPGDSFGYYYPDSVQGRFTISRDNAKNSLYLQMNSLRAEDTAVYYCTRDIYYNYGAWFAYWGQGTLVTVSS
VL: DIQLTQSPSSLSASVGDRVTITCKASQSVDYDGDSYMNWYQQKPGKAPKLLIYAASTLESGVPSRFSGSGSGTDFTLTISSLQPEDFATYYCQQANEDPRTFGQGTKVEIKR
notes: also called positive control antibody BIIB059
The molecule B14 yielded an EC50 in assay [4] of 3.29 nM.
